{"source": "paper PMC5404835", "target": "C-peptide-mCherry generated from RINS1 (human)", "test": "western blot of cell lysate (band size); lysates of MIN6 cells expressing RINS1 (lysis buffer 10 mM Tris/Cl pH 7.5, 150 mM NaCl, 0.5 mM EDTA, 0.5% NP-40), NuPAGE 4-12% Bis-Tris gel, anti-mCherry antibody", "data": [{"substance": "C-peptide-mCherry generated from RINS1 (domain or fragment)", "values": [{"measurement": "stoichiometry N", "value": 2}]}]}
